# Source: patent US9752163B2, “Process for the production of isoprenol from mevalonate employing a diphosphomevalonate decarboxylase” (Global Bioenergies, priority 2009, dated 2017)
# B1: Thermoplasma acidophilum (accession number Q9H1N1): MDP decarboxylase enzyme inferred from the genome of Thermoplasma acidophilum (protein, listed as Thermoplasma acidophilum)
# chain: MLHHHHHHTYRSIGSTAYPTIGVVLLGGIANPVTRTPLHTSAGIAYSDSCGSIRSETRIYADEATHIYFNGTESTDDNRSVRRVLDRYSSVFEEAFGTKTVSYSSQNFGILSGSSDAGAASIGAAILGLKPDLDPHDVENDLRAVSESAGRSLFGGLTITWSDGFHAYTEKILDPEAFSGYSIVAFAFDYQRNPSDVIHQNIVRSDLYPARKKHADEHAHMIKEYAKTNDIKGIFDLAQEDTEEYHSILRGVGVNVIRENMQKLISYLKLIRKDYWNAYIVTGGSNVYVAVESENADRLFSIENTFGSKKKMLRIVGGAWHRRPE
# B2: Thermoplasma volcanium (accession number Q97BY2): MDP decarboxylase enzyme inferred from the genome of Thermoplasma volcanium (protein, listed as Thermoplasma volcanium)
# chain: MLHHHHHHSNSSITSVAYPTIGVVLLGGIANEKTRTPLHTSAGIAYTDSCGSIRTESTIYGDSEMHIYFNGTESKDENRSVKSVLERYRNELQSFFGKKDVSYSSLNYGILSGSSDAGAASIGAILSFIDKKNDIHDIENDIRMISESAGRSLHGGLTITWSDGYSAYTERVLGPEHFNNYAIVGFSFDYPRNPSDTIHQNIIKSKRYKQRTIDADEHAHEIKEMARTDDIEGIFEKAEEDTEEYHSILREVGVLVIRENMQKLIEFIKILRKEFWNSYIVTGGSNVYVIVRRDDLERLIHIKNTFGSKPKILNVAGPAWIKKVESD
# B3: Picrophilus torridus MDP decarboxylase: diphosphomevalonate (MDP) decarboxylase EC 4.1.1.33 from Picrophilus torridus, expressed in E. coli from the native or codon-optimized gene (protein, listed as Picrophilus torridus)
# chain: MENYNVKTRAFPTIGIILLGGISDKKNRIPLHTTAGIAYTGINNDVYTETKLYVSKDEKCYIDGKEIDLNSDRSPSKVIDKFKHEILMRVNLDDENNLSIDSRNFNILSGSSDSGAAALGECIESIFEYNINIFTFENDLQRISESVGRSLYGGLTVNYANGRESLTEPLLEPEAFNNFTIIGAHFNIDRKPSNEIHENIIKHENYRERIKSAERKAKKLEELSRNANIKGIFELAESDTVEYHKMLHDVGVDIINDRMENLIERVKEMKNNFWNSYIVTGGPNVFVITEKKDVDKAMEGLNDLCDDIRLLKVAGKPQVISKNF
# modifications: DSM 9790
# notes: diphosphomevalonate (MDP) decarboxylase EC 4.1.1.33 from Picrophilus torridus, expressed in E. coli from the native or codon-optimized gene
# How the values were obtained:
# [1] = Mevalonate decarboxylation activity followed by inorganic phosphate production (ammonium molybdate method); format: biochemical
# Description: The reaction medium contained 100 mM mevalonate, 40 mM ATP, 10 mM MgCl2, 20 mM KCl, 0.5 mM DTT and enzyme preparation varying from 0.01 to 0.05 mg/ml of protein. 50 mM sodium citrate was used in the range of pH from 4 to 6, and 50 mM Tris-HCl for pH 7 and 7.5. Enzyme-free control assays were carried out in parallel. After 72 h incubation, inorganic phosphate was quantified colorimetrically according to the ammonium molybdate method (Gawronski J D, Benson D R, Anal. Biochem. 327 (2004) 114-118). A 50 μl sample (containing not more than 0.5 μmole of phosphate) was mixed with 150 μl of ammonium molybdate reagent containing 50% v/v acetone, 1.25 N H2SO4, 2.5 mM (NH4)6Mo7O24 and then with 10 μl 1 M citric acid. The mixture was incubated for 2 minutes at room temperature. The absorbance of ammonium phosphomolybdate formed was measured at 355 nm and the quantity of inorganic phosphate estimated using a calibration curve obtained with potassium phosphate.
# (§1) The complete assay for mevalonate decarboxylation contains reaction buffer, 100 mM mevalonate, 40 mM ATP, 10 mM MgCl2, 20 mM KCl, 0.5 mM DTT and enzyme preparation at a concentration ranging from 0.01 to 0.05 mg/ml of protein. 50 mM sodium citrate is used in the range of pH from 4 to 6, and 50 mM Tris-HCl for pH 7 and 7.5. Control reactions are carried out in the absence of enzyme, substrate or co-factor.
# Inorganic phosphate concentration is measured by spectroscopic colorimetry according to the ammonium molybdate method (Gawronski J D, Benson D R, Anal. Biochem. 327 (2004) 114-118). A 50 μl aliquot from the reaction assay (containing not more than 0.5 μmole of phosphate) is mixed with 150 μl ammonium molybdate reagent, containing 50% volume acetone, 1.25 N H2SO4, 2.5 mM (NH4)6Mo7O24 and then with 10 μl 1 M citric acid. The mixture is then incubated for 2 minutes at room temperature. The absorbance of ammonium phosphomolybdate formed was measured at 355 nm and the quantity of inorganic phosphate estimated using a calibration curve obtained with potassium phosphate.
# [2] = Product formation as function of mevalonate concentration (permanganate assay); format: biochemical; details: purified enzyme, range of mevalonate concentrations (FIG. 6)
# Description: as §1
# The formation of products containing double-bonds is followed by oxidization with alkaline potassium permanganate solution, resulting in increase of absorbance at 420 nm.
# To an aliquot of reaction mixture diluted with H2O to 120 μl, 80 μl of permanganate reagent, containing 5 mM KMnO4 and 50 mM NaOH, is added. The mixture is kept at room temperature for 20 min and the absorbance at 420 nm is measured. The calibration curve is prepared using commercial isoprenol.
Molecule,phosphate production with mevalonate as substrate ([1]; purified proteins (FIG. 5)),"enzyme activity with mevalonate as substrate ([1]; crude lysate of E. coli, optimized gene versus native sequence (FIG. 4b))","phosphate production with mevalonate as substrate ([1]; library screening, E. coli extracts, 100 mM mevalonate, 40 mM ATP, 72 h incubation)",conversion rate [2]
B1,significant increase in phosphate production,,,
B2,significant increase in phosphate production,,,
B3,,higher enzyme activity,reproducible increase in phosphate production over the background level,increase with the concentration of mevalonate
